Sequences and labels used below:
B1: Twister Ribozyme (parent)
chain: AACACUGCCAAUGCCGGUCCCAAGCCCGGAUAAAAGUGGAGGGGGCGG

This data set covers variants of B1. Briefly: self-cleavage, relative activity (ratio to wild type); higher = more cleavage; co-transcriptional.
For AUCACUGCCAAUGCCGGUCCCAAGCCCGGAUAAAAGUGGAGGGGGCGU, the self-cleavage was determined as 0.581.
Take AUCACCGCCAAUGCCGGUCCCAAGCCCGGAUAAAAGUGGAGGGGGCGG: the self-cleavage turned out to be 0.0754.
Consider AUCACUGCCAAUGCCGCUCCCAAGCCCGGAUAAAAGUGGAGGGGGCGG, for which the self-cleavage stood at 0.0754.
Turning to AUCACUGCCAAUGCCGUUCCCAAGCCCGGAUAAAAGUGGAGGGGGCGG, the self-cleavage was found to be 0.0826.
Turning to AUCACUGCCAAUGCCGGUCCCAAGCGCGGAUAAAAGUGGAGGGGGCGG, the self-cleavage was 0.128.
As to AUCACUGCCAAUGCCGGUCCCAAGCUCGGAUAAAAGUGGAGGGGGCGG, the self-cleavage came out at 0.069.
For the variant AUCACUGCCAAUGCCGGUCCCUAGCCCGGAUAAAAGUGGAGGGGGCGG, the self-cleavage amounted to 0.11.
Take AAAACUGCCAAUGCCGGUCCCAAGCCCGGAUAAAAGUGGGGGGGGCGG: the self-cleavage is 0.0819.
As to AAAACUGCCAAUGCCGGUCCCAAGCCCGGAUAAAAGUGGUGGGGGCGG, the self-cleavage came to 0.0819.
With AUCACUGCCAAUGCCGGUCCCAAGCCCGGGUAAAAGUGGAGGGGGCGG, the self-cleavage was 0.772.
Consider AUCACUGCCAAUGCCGGUCCCAAGCCCGGCUAAAAGUGGAGGGGGCGG, for which the self-cleavage amounted to 0.182.
Consider AAAACUGCCAAUGCCGGUCCCAAGCCGGGAUAAAAGUGGAGGGGGCGG, for which the self-cleavage was determined as 0.0917.
Turning to AUCACUGCCAAUGCCGGUCCCAAGCCCGGAUAAAAGUGGAGGGGCCGG, the self-cleavage stood at 0.191.
In the case of AUCACUGCCAAUGCCGGUCCCAAGCCCGGAUAAAAGUGGAGGGGACGG, the self-cleavage came out at 0.514.
AUCACUGCCAAUGCCUGUCCCAAGCCCGGAUAAAAGUGGAGGGGGCGG: the self-cleavage was 0.309.
As to AUCACUGCCAAUGCCCGUCCCAAGCCCGGAUAAAAGUGGAGGGGGCGG, the self-cleavage was 0.13.
For AUCACUGCCAAUGCCGGUCCCAAUCCCGGAUAAAAGUGGAGGGGGCGG, the self-cleavage worked out at 0.0983.
Consider AUCACUGCCAAUGCCGGUCCCAAGCCCGGAUAAAAGUGGAGGGGGCUG, for which the self-cleavage came to 0.23.
As to AUCACUGCCAAUGCCGGUCCCAAGCCCGGAUAAAAGUGGAGGGGGCCG, the self-cleavage turned out to be 0.174.
For AGCACUGCCAAUGCCGGCCCCAAGCCCGGAUAAAAGUGGAGGGGGCGG the value was 0.102; for AUCACUGCCAAUGCCGGUCCCAAGCCCGGAUCAAAGUGGAGGGGGCGG, 0.581; for AUCACUGCCAAUGCCGGUCCCAAGCCCGGAUGAAAGUGGAGGGGGCGG, 0.605.
For AGCACUGCCAACGCCGGUCCCAAGCCCGGAUAAAAGUGGAGGGGGCGG, the self-cleavage worked out at 0.316.
In the case of AAAACUGCCAAUGCCGGUCCCAAGCCCGGAUAACAGUGGAGGGGGCGG, the self-cleavage was 0.0676.
For AAAACUGCCUAUGCCGGUCCCAAGCCCGGAUAAAAGUGGAGGGGGCGG, the self-cleavage is 0.0843.
Consider AAAACUGCCGAUGCCGGUCCCAAGCCCGGAUAAAAGUGGAGGGGGCGG, for which the self-cleavage turned out to be 0.322.
For the variant AUCACUGCCAAUGCCGGUCCCAAGCCCGGACAAAAGUGGAGGGGGCGG, the self-cleavage worked out at 0.652.
On to AUCACUGCCAAUGCUGGUCCCAAGCCCGGAUAAAAGUGGAGGGGGCGG, for which the self-cleavage is 0.531.
With AUCACUGCCAAUGCCGGUCCCAUGCCCGGAUAAAAGUGGAGGGGGCGG, the self-cleavage worked out at 0.106.
For the variant AUCACUGCCAAUGCCGGUCCCACGCCCGGAUAAAAGUGGAGGGGGCGG, the self-cleavage was 0.107.
The value for AUCACUGCCAAUGCCGGUGCCAAGCCCGGAUAAAAGUGGAGGGGGCGG was 0.0882.
On to AUCACUGCCGAUGCCGGUCCCAAGCCCGGAUAAAAGUGGAGGGGGCGG, for which the self-cleavage turned out to be 0.674.
The value for AUCACUGCCAAUGCCGGUCCCAAGCCCGGAUAAAAGUGGCGGGGGCGG was 0.155; that for AUCACUGCCAAUGCCGGUCCCAAGCCCGGAUAAAAGUGGUGGGGGCGG was 0.154.
Regarding AUCACUGCCAAUGCCGGUCCCAAGCCCGGAUAAAAGUGGAGGGUGCGG, the self-cleavage was found to be 0.429.
Regarding AUCACUGCCAAUGCCGGUCCCAAGCCCGGAUAAAAGUGGAGGGAGCGG, the self-cleavage was 0.615.
Consider AUCACUGCCAAUGCCGGUCCCAAGCCCGGAUAAAAGUGGAGGGCGCGG, for which the self-cleavage is 0.439.
On to AGCACUGCCAAUGCCGGUCCCAAGCCCGGAUAAAAGGGGAGGGGGCGG, for which the self-cleavage amounted to 0.173.
On to AGCACUGCCAAUGCCGGUCCCAAGCCCGGAUAAAAGAGGAGGGGGCGG, for which the self-cleavage worked out at 0.142.
Turning to AUCACUGCCAAUGCCGGUCCCAAGCCCGGAUAAAAGCGGAGGGGGCGG, the self-cleavage stood at 0.114.
The value for AUCACUGCCAAUGCCGGUCCCAAGCCCGGAUAAAAGGGGAGGGGGCGG was 0.214.
For AGCACGGCCAAUGCCGGUCCCAAGCCCGGAUAAAAGUGGAGGGGGCGG the value was 0.161; for AGCACCGCCAAUGCCGGUCCCAAGCCCGGAUAAAAGUGGAGGGGGCGG, 0.103; for AUCACUGCCAAUGCCGGUCCCAAGCCCGGAUAGAAGUGGAGGGGGCGG, 0.503.
As for AAAACUGCCAAUGCCGGUCCCAAGCCCGGAUAAAAGUGGAGGGGGCGG, the self-cleavage is 0.228.
For AAAACUGCCAAUGCCGGUCCCAAGCACGGAUAAAAGUGGAGGGGGCGG, the self-cleavage is 0.139.
In the case of AAAACUGCCAAUGCCGGUCCCAAGCGCGGAUAAAAGUGGAGGGGGCGG, the self-cleavage is 0.0639.
Consider AUCACUGCCAAUGCCGGUCCCAAGCCCGGAUAAAUGUGGAGGGGGCGG, for which the self-cleavage was determined as 0.574.
With AUCACUGCCAAUGCCGGUCCCAAGCCCGGAUAAAGGUGGAGGGGGCGG, the self-cleavage worked out at 0.207.
For AUCACUGCCAAUGCCGGUCCCAAGCCCGCAUAAAAGUGGAGGGGGCGG the value was 0.195; for AAAACUGCCAAUGCCGGUCCCAAGCCCGGAUAAAGGUGGAGGGGGCGG, 0.222.
On to AAAACUGCCAGUGCCGGUCCCAAGCCCGGAUAAAAGUGGAGGGGGCGG, for which the self-cleavage was 0.185.
Regarding AUCACUGCCAAUGCCGGUCCCAAGCCCGGAUAAAAGUGGACGGGGCGG, the self-cleavage was determined as 0.175.
For AUCACUGCCAAUGCCGGUCCCAAGCCCGGAUAAAAGUGGAAGGGGCGG the value was 0.111.

The values are drawn from the RNAGym collection of RNA variant scans (doi:10.7554/elife.80360).
